Measured values as given in PMC4949388 (Brain, 2015).

Tests used:
[1] = molecular target: CSF BuChE (human (endogenous in CSF)) (UniProt P06276); experiment: co-sedimentation
co-sedimentation = molecular target: the molecule itself; experiment: co-sedimentation

CSF BuChE (from UniProt P06276 29-602) (enzyme)
stoichiometry N [1]: 4

B1: highly purified BuChE from human serum (enzyme)
chain: EDDIIIATKNGKVRGMNLTVFGGTVTAFLGIPYAQPPLGRLRFKKPQSLTKWSDIWNATKYANSCCQNIDQSFPGFHGSEMWNPNTDLSEDCLYLNVWIPAPKPKNATVLIWIYGGGFQTGTSSLHVYDGKFLARVERVIVVSMNYRVGALGFLALPGNPEAPGNMGLFDQQLALQWVQKNIAAFGGNPKSVTLFGESAGAASVSLHLLSPGSHSLFTRAILQSGSFNAPWAVTSLYEARNRTLNLAKLTGCSRENETEIIKCLRNKDPQEILLNEAFVVPYGTPLSVNFGPTVDGDFLTDMPDILLELGQFKKTQILVGVNKDEGTAFLVYGAPGFSKDNNSIITRKEFQEGLKIFFPGVSEFGKESILFHYTDWVDDQRPENYREALGDVVGDYNFICPALEFTKKFSEWGNNAFFYYFEHRSSKLPWPEWMGVMHGYEIEFVFGLPLERRDNYTKAEEILSRSIVKRWANFAKYGNPNETQNNSTSWPVFKSTEQKYLTLNTESTRIMTKLRAQQCRFWTSFFPKVLEMTGNIDEAEWEWKAGFHRWNNYMMDWKNQFNDYTSKKESCVGL
stoichiometry N (co-sedimentation): 4
